Where no end group is shown, it is not given here. [ ]: non-standard residue; d: D form. Met(O) = CS(=O)CC[C@H](N)C(=O)O
Assays:
[1] = target: T1, rhesus monkey Y2 receptor (rhesus monkey, UniProt Q9GK74 1-381); experiment: competition binding with 125I-PYY on CHO cells stably expressing rhesus monkey Y2
T1 construct: whole, on cells; Transiently expressed in COS-7 cells together with the chimeric G protein Gqi5 for the potency assay; also called rhY2; rhesus monkey NPY-Receptor Y2
T1 sequence (looked up): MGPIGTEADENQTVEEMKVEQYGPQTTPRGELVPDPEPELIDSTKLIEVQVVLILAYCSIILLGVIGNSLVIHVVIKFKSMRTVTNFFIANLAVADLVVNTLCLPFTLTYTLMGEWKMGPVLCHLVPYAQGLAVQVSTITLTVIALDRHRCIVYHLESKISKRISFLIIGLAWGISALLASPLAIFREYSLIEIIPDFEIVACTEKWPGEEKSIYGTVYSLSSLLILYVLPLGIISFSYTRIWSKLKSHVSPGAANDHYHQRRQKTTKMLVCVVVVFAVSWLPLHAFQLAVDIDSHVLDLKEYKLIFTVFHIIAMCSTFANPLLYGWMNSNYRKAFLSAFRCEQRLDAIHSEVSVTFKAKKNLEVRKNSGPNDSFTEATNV
Description: (§1) The stable transfected CHO cells are transferred to 48-well culture plates one day prior assay at a density of 2,500 cells per well aiming at 5-8% binding of the radioactive ligand. […] Binding assays are performed in 0.5 ml of a 50 mM Hepes buffer, pH 7.4, supplemented with 1 mM CaCl2, 5 mM MgCl2, and 0.1% (w/v) bovine serum albumin and 100 μg/ml bacitracin. Non-specific binding is determined as the binding in the presence of 1 μM of unlabeled human PYY. Cells are washed twice in 0.5 ml of ice-cold buffer and 0.5-1 ml of lysis buffer (8 M Urea, 2% NP40 in 3 M acetic acid) is added and the bound radioactivity is counted in a gamma counter. Determinations are made in triplicates. […] IC50 values were calculated using a standard pharmacological data handling software, Prism 3.0 (graphpad Sofware, San Diego, USA). Ki-values are calculated according the Cheng-Prusoff equation (Cheng Y, Prusoff W H., Biochem Pharmacol. 1973): Ki=[IC50/(1+[L]/Kd)], where Ki is the equilibrium inhibitory constant for the cold ligand, Kd is the equilibrium constant for the radiolabeled (hot) ligand and L is the concentration of the radiolabeled ligand used.

[2] = target: T1, rhesus monkey Y2 receptor; experiment: cell-based or functional assay
[3] = target: T2, rhesus monkey Y1 receptor (rhesus monkey); experiment: competition binding on CHO cells expressing rhesus monkey Y1 (125I-PYY), compared with Y2
T2 construct: whole, on cells; also called rhY1
Description: as §1
Protocol as for the Y2 affinity assay, except that CHO cells stably expressing rhesus monkey Y1 are used and cells are transferred to culture plates at a density of 23,000 cells per well.

[4] = target: T2, rhesus monkey Y1 receptor; experiment: cell-based or functional assay
[5] = target: rhesus monkey Y4 receptor (rhesus monkey); experiment: cell-based or functional assay
[6] = target: T3, rhesus monkey Y4 receptor (rhesus monkey); experiment: competition binding on CHO cells expressing rhesus monkey Y4 (125I-PP), compared with Y2
T3 construct: whole, on cells; also called rhY4
Description: as §1

B1: PYY (Peptide YY), human sequence (peptide)
peptide: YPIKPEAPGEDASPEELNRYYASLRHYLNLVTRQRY
modifications: C-terminally amidated
notes: also called PYY1-36; human PYY
[1]
  Ki: 0.09 nM
[2]
  IP3 EC50 values at Y2: 0.18 nM

B2: NPY (Neuropeptide Y), human sequence (peptide)
peptide: not shown
modifications: C-terminally amidated
[1]
  Ki: 0.11 nM
[2]
  IP3 EC50 values at Y2: 0.6 nM

B3: [Lys4,Leu17,Met-sulfoxide30,Gln34]hPP (peptide)
peptide: APLKPVYPGDNATPEQLAQYAADLRRYIN[Met(O)]LTRQRY-NH2
modifications: N-terminus assumed
SMILES: CC[C@H](C)[C@H](NC(=O)[C@H](Cc1ccc(O)cc1)NC(=O)[C@H](CCCNC(=N)N)NC(=O)[C@H](CCCNC(=N)N)NC(=O)[C@H](CC(C)C)NC(=O)[C@H](CC(=O)O)NC(=O)[C@H](C)NC(=O)[C@H](C)NC(=O)[C@H](Cc1ccc(O)cc1)NC(=O)[C@H](CCC(N)=O)NC(=O)[C@H](C)NC(=O)[C@H](CC(C)C)NC(=O)[C@H](CCC(N)=O)NC(=O)[C@H](CCC(=O)O)NC(=O)[C@@H]1CCCN1C(=O)[C@@H](NC(=O)[C@H](C)NC(=O)[C@H](CC(N)=O)NC(=O)[C@H](CC(=O)O)NC(=O)CNC(=O)[C@@H]1CCCN1C(=O)[C@H](Cc1ccc(O)cc1)NC(=O)[C@@H](NC(=O)[C@@H]1CCCN1C(=O)[C@H](CCCCN)NC(=O)[C@H](CC(C)C)NC(=O)[C@@H]1CCCN1C(=O)[C@H](C)N)C(C)C)[C@@H](C)O)C(=O)N[C@@H](CC(N)=O)C(=O)N[C@@H](CCS(C)=O)C(=O)N[C@@H](CC(C)C)C(=O)N[C@H](C(=O)N[C@@H](CCCNC(=N)N)C(=O)N[C@@H](CCC(N)=O)C(=O)N[C@@H](CCCNC(=N)N)C(=O)N[C@@H](Cc1ccc(O)cc1)C(N)=O)[C@@H](C)O
notes: Human PP with Lys at 4, Leu at 17, oxidised Met at 30 and Gln at 34; also called [Lys4, Leu17, Met(O)30, Gln34]-PP; [Lys4,Leu17,oxidised Met30,Gln34]hPP
[3]
  fold selectivity (affinity at Y2 against Y1): ≥ 100 fold
[1]
  Ki: 0.06 nM
[2]
  IP3 EC50 values at Y2: 0.5 nM
[4]
  fold selectivity in the potency assay (Y2 against Y1): ≥ 100 fold
[5]
  fold selectivity in the potency assay (Y2 against Y4): ≥ 20 fold
[6]
  fold selectivity (affinity at Y2 against Y4): ≥ 20 fold

B4: [Lys4,Leu17,Thr30,Gln34]hPP (peptide)
peptide: APLKPVYPGDNATPEQLAQYAADLRRYINTLTRQRY-NH2
notes: Human PP with Lys at 4, Leu at 17, Thr at 30 and Gln at 34; also called [Lys4, Leu17, Thr30, Gln34]-PP; peptide (ii)
[3]
  fold selectivity (affinity at Y2 against Y1): ≥ 100 fold
[1]
  Ki: 0.47 nM
[2]
  IP3 EC50 values at Y2: 0.71 nM
[4]
  fold selectivity in the potency assay (Y2 against Y1): ≥ 100 fold
[5]
  fold selectivity in the potency assay (Y2 against Y4): ≥ 20 fold
[6]
  fold selectivity (affinity at Y2 against Y4): ≥ 20 fold

B5: [Lys4,Leu17,Ser30,Gln34]hPP (peptide)
peptide: APLKPVYPGDNATPEQLAQYAADLRRYINSLTRQRY-NH2
notes: also called [Lys4, Leu17, Ser30, Gln34]-PP; peptide (i)
[3]
  fold selectivity (affinity at Y2 against Y1): ≥ 100 fold
[1]
  Ki: 0.51 nM
[2]
  IP3 EC50 values at Y2: 0.67 nM
[4]
  fold selectivity in the potency assay (Y2 against Y1): ≥ 100 fold
[5]
  fold selectivity in the potency assay (Y2 against Y4): ≥ 20 fold
[6]
  fold selectivity (affinity at Y2 against Y4): ≥ 20 fold

B6: PP (Pancreatic Polypeptide), human sequence (peptide)
peptide: APLEPVYPGDNATPEQMAQYAADLRRYINMLTRPRY-NH2
[2]
  IP3 EC50 values at Y2 (nM): > 1000 nM

Reference: patent publication US20080255046A1 (7TM PHARMA A S, published 2008)
